These are literature values, as cited in PMC4250281.

The data set has as its target 14-3-3 zeta (Homo sapiens) (UniProt P63104).
Sequence of UniProt P63104 (P63104 whole entry): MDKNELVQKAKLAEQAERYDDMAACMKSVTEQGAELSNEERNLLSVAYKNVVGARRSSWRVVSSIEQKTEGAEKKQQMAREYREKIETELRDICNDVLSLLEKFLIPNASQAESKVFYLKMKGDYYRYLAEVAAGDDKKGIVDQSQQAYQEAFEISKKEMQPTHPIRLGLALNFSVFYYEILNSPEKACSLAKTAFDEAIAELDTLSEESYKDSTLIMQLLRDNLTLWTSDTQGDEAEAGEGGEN

For the substance Raf-1, the Kd is 122 nM.
